In patent US20090162353A1 (MacroGenics, published 2009):

What was measured:
[1] = biological target: T1, vaccinia virus recombinant B5 protein (vaccinia virus, UniProt Q01227 20-275); experiment: surface plasmon resonance; format not stated; target taken from the text
[2] = biological target: T1, vaccinia virus recombinant B5 protein; experiment: ELISA, B5 capture, IgG detect (luminescence) [C]

B1: Ch8AH8AL (antibody, V domains shown)
VH: EVQLVESGGGLIKPGGSLRLSCAASGFIFRDYNINWVRQAPGKGLEWLGFIRTRASGRSTEYSASVKGRFTISRDDSKNIAYLHINSLKMEDTAVYYCAKKGDSYYYMDFWGKGTAVTVSS
VL: ELALTQPASVSGSPGQSITISCTGGRSDLGDSNFVSWYQQYPGKAPKLLIYQVNKRPSGVPDRFSASKSANTASLTISGLQTEDEADYFCSSYTTTSTYVFGIGTKVVVLG
- Kd [1]: ≤ 0.6 nM
- koff [1]: ≤ 1e-05 s⁻¹
- kon [1]: 20000 M⁻¹ s⁻¹
- EC50 (read off the curve) [2]: ~0.03 µg/mL
